Biological target: vitronectin (VTN) (UniProt P04004)
Assay: SPR; Biacore T200; LNA043 (~3,000 RU), FN1 or VTN (~500 RU) amine-coupled to CM5; integrins as analytes 0.6–10 μM, single-cycle kinetics, 37 °C, 1× HBS-N, 0.005% Tween 20, 1 mM MgCl2, 1 mM CaCl2, 2 mM MnCl2; 1:1 binding fit

vitronectin (VTN), sequence (P04004 20-478): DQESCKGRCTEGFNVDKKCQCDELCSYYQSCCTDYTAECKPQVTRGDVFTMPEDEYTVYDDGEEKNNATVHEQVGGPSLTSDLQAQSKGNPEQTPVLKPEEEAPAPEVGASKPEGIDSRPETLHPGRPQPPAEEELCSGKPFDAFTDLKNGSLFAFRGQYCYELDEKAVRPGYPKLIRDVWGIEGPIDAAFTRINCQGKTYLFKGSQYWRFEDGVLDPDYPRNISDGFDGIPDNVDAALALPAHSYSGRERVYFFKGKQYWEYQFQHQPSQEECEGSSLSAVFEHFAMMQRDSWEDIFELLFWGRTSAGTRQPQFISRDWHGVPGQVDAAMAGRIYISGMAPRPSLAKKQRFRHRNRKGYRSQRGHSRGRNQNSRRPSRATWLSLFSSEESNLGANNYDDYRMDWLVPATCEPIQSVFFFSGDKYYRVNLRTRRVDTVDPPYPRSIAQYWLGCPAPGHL

- Kd: 0.997 µM
Substance: recombinant human αvβ3 integrin (from UniProt P06756 31-1048; P05106 27-718) (complex)
